Reference: IntAct's records for PubMed 29892012

What was measured:
bend5_human BEND5 = target: T1, bend5_human BEND5 (UniProt Q7L4P6)
T1 sequence: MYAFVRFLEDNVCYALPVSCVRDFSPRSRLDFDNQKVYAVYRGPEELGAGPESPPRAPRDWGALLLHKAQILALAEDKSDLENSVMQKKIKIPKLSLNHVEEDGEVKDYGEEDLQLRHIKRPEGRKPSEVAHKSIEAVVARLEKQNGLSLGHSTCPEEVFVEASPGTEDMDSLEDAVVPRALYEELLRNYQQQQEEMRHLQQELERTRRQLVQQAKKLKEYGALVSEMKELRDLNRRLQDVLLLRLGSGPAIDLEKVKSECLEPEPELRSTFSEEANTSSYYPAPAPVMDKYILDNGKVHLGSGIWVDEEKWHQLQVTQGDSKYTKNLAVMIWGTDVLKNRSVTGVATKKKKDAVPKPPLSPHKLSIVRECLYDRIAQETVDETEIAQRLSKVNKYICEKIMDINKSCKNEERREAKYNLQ

traf1_human TRAF1 = target: T2, traf1_human TRAF1 (UniProt Q13077)
T2 sequence: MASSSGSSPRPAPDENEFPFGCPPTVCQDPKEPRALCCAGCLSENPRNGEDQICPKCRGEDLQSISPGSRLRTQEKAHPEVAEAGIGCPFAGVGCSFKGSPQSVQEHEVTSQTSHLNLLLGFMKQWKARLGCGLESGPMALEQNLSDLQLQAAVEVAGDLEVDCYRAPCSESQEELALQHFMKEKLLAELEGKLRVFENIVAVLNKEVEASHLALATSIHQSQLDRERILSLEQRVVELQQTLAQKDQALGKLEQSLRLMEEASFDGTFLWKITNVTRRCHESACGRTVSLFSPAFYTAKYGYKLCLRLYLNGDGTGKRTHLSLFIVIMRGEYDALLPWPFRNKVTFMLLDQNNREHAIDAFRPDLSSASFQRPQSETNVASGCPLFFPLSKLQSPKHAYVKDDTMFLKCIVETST

drc12_human DRC12 = drc12_human DRC12 (UniProt Q494R4)
Sequence of drc12_human DRC12 (Q494R4 whole entry): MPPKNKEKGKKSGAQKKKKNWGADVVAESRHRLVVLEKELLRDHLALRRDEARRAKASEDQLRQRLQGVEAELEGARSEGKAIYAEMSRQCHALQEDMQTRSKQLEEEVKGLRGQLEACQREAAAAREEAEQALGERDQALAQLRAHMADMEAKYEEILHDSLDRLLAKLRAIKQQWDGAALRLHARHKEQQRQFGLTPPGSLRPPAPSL

zbt14_human ZBTB14 = target: T3, zbt14_human ZBTB14 (UniProt O43829)
T3 sequence: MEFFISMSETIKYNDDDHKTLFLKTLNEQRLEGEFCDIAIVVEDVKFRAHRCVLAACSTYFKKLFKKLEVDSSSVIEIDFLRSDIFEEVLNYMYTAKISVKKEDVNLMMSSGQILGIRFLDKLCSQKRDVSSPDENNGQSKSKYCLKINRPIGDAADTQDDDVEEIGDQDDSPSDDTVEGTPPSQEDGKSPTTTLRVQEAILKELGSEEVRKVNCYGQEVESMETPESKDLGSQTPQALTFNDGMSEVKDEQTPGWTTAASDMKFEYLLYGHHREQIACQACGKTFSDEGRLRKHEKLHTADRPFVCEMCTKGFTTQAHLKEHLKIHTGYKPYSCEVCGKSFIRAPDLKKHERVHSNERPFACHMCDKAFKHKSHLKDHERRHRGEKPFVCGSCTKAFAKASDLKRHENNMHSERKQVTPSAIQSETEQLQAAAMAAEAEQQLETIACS

zmat1_human ZMAT1 = zmat1_human ZMAT1 (UniProt Q5H9K5)
Sequence of zmat1_human ZMAT1 (Q5H9K5 whole entry): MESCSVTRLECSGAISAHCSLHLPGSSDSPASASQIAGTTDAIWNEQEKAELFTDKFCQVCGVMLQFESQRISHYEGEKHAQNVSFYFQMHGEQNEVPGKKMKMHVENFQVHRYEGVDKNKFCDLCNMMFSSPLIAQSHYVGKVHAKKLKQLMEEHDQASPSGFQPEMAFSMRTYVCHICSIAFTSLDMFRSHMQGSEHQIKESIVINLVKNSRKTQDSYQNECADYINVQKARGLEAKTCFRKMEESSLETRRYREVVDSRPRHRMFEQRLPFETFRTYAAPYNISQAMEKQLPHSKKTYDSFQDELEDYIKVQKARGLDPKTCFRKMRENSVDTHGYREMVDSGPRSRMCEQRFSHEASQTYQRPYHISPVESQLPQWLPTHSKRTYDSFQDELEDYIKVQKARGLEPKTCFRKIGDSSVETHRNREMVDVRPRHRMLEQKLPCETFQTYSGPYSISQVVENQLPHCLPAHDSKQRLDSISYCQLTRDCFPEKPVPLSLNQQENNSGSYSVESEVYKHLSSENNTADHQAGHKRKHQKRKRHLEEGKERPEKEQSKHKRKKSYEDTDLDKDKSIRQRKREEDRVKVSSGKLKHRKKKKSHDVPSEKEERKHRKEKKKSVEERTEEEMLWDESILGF

traf2_human TRAF2 = target: T4, traf2_human TRAF2 (UniProt Q12933)
T4 sequence: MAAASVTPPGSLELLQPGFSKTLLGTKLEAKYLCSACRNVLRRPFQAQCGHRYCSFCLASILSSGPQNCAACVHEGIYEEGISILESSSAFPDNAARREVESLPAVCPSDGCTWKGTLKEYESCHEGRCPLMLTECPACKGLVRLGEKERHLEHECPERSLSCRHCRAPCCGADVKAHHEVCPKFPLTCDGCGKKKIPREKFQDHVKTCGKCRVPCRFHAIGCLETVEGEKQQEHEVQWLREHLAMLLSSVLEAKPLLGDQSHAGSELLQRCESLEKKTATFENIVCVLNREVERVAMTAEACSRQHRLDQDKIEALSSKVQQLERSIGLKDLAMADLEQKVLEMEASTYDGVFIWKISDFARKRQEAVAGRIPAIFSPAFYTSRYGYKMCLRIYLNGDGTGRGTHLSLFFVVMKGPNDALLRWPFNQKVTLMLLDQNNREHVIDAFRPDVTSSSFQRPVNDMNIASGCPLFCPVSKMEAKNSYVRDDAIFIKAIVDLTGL

lonf1_human LONRF1 = target: T5, lonf1_human LONRF1 (UniProt Q17RB8)
T5 sequence: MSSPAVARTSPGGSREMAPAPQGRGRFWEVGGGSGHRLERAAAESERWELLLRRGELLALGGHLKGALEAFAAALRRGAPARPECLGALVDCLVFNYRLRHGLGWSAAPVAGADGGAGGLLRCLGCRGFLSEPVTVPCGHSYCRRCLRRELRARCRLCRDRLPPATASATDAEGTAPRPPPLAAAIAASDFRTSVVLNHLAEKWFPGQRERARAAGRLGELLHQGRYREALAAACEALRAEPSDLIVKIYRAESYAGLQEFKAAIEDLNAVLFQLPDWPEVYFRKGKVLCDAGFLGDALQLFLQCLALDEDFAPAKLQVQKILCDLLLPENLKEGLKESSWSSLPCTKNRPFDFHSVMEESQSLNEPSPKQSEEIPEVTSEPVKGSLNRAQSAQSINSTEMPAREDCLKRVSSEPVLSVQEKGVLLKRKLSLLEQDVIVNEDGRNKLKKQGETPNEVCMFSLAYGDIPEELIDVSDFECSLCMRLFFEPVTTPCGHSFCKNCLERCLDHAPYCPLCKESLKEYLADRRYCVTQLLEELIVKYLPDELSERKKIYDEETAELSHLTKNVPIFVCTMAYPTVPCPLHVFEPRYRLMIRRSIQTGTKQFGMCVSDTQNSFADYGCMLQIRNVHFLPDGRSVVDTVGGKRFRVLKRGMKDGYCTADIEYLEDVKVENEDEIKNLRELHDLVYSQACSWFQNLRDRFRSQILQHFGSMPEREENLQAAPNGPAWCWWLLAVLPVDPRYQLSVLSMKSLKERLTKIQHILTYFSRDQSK

Measured: effect of a mutation on the interaction

Golgi reassembly-stacking protein 2 (Homo sapiens) (from UniProt Q9H8Y8) L320R
with no effect: bend5_human BEND5 | traf1_human TRAF1 | drc12_human DRC12 | zbt14_human ZBTB14 | zmat1_human ZMAT1 | traf2_human TRAF2 | lonf1_human LONRF1
